The text below walks through data of the nanobody polyreactivity screen of Harvey et al. (2022).

A short description of the data set: yeast display, Sf9 membrane polyspecificity reagent, FACS + sequencing; frameworks hold sequencing errors. The essentials: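 A nanobody's polyreactivity label depends on the gate it was sorted from. Yeast display cells were stained with 10% biotinylated, detergent-solubilized Sf9 membrane reagent for 1 hour at 4 °C, enriched on streptavidin microbeads and sorted by FACS. The low and high (top ~1%) gates were set on anti-HA fluorescence for expression and streptavidin fluorescence for reagent binding.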
On to “QVQLVESGGGLVQAGCSLRLSCAASGSTFPYNAMGWYRQAPGKERELVATIDATGGSTSYADSVKGRFTISRDNAKNTVYLQMNSLKPEDTAVYYCAAVAYILYFYAYYLTYDYWGQGTQVTVSS”, for which the “polyreactivity (PSR sort gate)” value is on record as “low polyreactivity”.
Consider “QVQLVESGGGLVQAGCSLRLSCAASGSVFTVYSMGWYRQAPGKERELVAAITRNGGRTYYADSVKVRFTISRDNSKNTVYLQMKILKPEDTAVYSCAATGLYSRLDYWGQGTQVTVSS”, for which the “polyreactivity (PSR sort gate)” value is “high polyreactivity”.
Turning to “QVQLVESGGGLVQAGCSLRLSCAASGYIFYNAMGWYRQAPGKERELVAAITSGGSTNYADSVKGRFTISRDNAKNTVYFQMNSLKPEDTADYYCNAVVYSPYRYEYWGQGTQVTVSS”, the “polyreactivity (PSR sort gate)” value is on record as “low polyreactivity”.
For “QVQLVESGGGLVQAGCSLRLSCDASGSIFTWYAIGWYRQAPGKERELVAAITRGGSTYADSVKGRFTISRDNAKNNVYLQMNSLKPEDSAVYYCAARRVPIRVGGYPYYYWGQGSQVTVSS” the value was “low polyreactivity”; for “QVQLVESGGGLVQAGCSLRLSFAASGFSFRRYALGSYIPAPGKERELVAAITNSGGSTYYADSVKGRFTISRDNAKNSVYLQLNSLKPEDTAVYYCVALRSACAYDYWGQGTQVTVSS”, “high polyreactivity”; for “QVQLVESGGGLVQAGCSLRLSFAASGRTLVPYSMGWYRQAPGKERELVAAKSSGGSTNYADSVKGRFTISRDNAKNTVYLQMNSLKPEDTAVYSCAAYDSVQKYWILGFDYWGQGTQVTVSS”, “low polyreactivity”.
For “QVQLVESGGGLVQAGCSLRLSSAASGSIFDDNALGRYRPAPGTDRELVAAISDNDGSTYYADSVKGRFTISRDNAKTTVYVQMNSLKADETAVYYCAATAQEWYPAVYNQYYYWGQGTQVTVSS” the value was “low polyreactivity”.
For “QVQLVESGGGLVQAGCSLRLSSPASGRIFWANVMGWYRQAPGKERELVAAISYSGTGTYYADSVKGRFTISPDYAKNTVYLQMNSLKPEDTAFYYFAKAPYIYYWGQGTHVTVSS” the value was “high polyreactivity”; for “QVQLVESGGGLVQAGCSLRLSWAASGRIIKYNAMGWYRQAPGKERELVAVITSGGSTYYAYSVKGRFTISRDNAKNTVYLQMNSLKPEDTAVYYCAAGFGDGPGNGYYSRYSWDDDYWGQGTQVTVSS”, “low polyreactivity”.
In the case of “QVQLVESGGGLVQAGCSLRLTCAASGFIFYYNAMGWYRQAPGKQKELVAAISWSDGGTYYADSVKGRFTISRDNAKNTVSLQMNRLKPEDTAVYYFSGDIDNWSEYDYWGQGTQVTVSS”, the “polyreactivity (PSR sort gate)” value is “low polyreactivity”.
For “QVQLVESGGGLVQAGCSRRLRCAASGFTFRLYAMGWSRQAPGKERELVAATTSGGSTYYADSVKGRFTISRDNAKNTVYLQMNSLKPEDTAVYYCNKLYRTSVEYDYWGQGTLVTVSS” the value was “high polyreactivity”; for “QVQLVESGGGLVQAGCTLRLSSAASGRIYRYNVMGWSRQAPGKESELVAGISSGGSTNYADSVKGRFTISRDNAKNTVYLQMTSLKPEDTAVYFCSKRWLNAKPYGQAMYSWGQGTQVTVSS”, “high polyreactivity”.
For “QVQLVESGGGLVQAGFSLRLSCAASGNIYYKYAMGWYRQAPGKERELVAAITWRVVRTYYADSVKGRFTISRDNAKNTVYLQMNSLKPEDTAVYYCAALSRQSGDYWGQGTQVTVSS” the value was “high polyreactivity”; for “QVQLVESGGGLVQAGFSLRLSCAASGSTFQSYTMGRSRQAPGKERELVAAISSSGGRTYYADSVKGRYTISRDYAKNTVYLQMNSLNPEDTAVYYCAAVSKSWRGATWYDYWGQGTQVTVSS”, “high polyreactivity”.
Turning to “QVQLVESGGGLVQAGGCLRISCAASGSIFPFYVMGRYRQAPGKERELVAAITRSGGSTYYADSVKGRFTISRDNAKNTVYLQMNSLKPEDTAVYYCAKRPHHGSTKYNYWGQGTQVTVSS”, the “polyreactivity (PSR sort gate)” value is on record as “low polyreactivity”.
For “QVQLVESGGGLVQAGGCLRKSCAASGFTFFSYARGWSRQAPGKERELVAGINSSGGSTNYADSVKGRFTISRDNAKNTVYLLMNSLKPEDTAVYYCNADLRSEYDYWGQGTQVTVSS” the value was “low polyreactivity”; for “QVQLVESGGGLVQAGGCLRLSCAASGFTFIYYVMGWYRQAPGIERELVAAINGRGDRKYYADSVKGRFTISRDNAKNTVYLQMTSLKPEETAVYYCNARTHTWGYSAKFDYWGQGTQVTVSS”, “high polyreactivity”; for “QVQLVESGGGLVQAGGCLRVSCAASGFISGYYAMGGYSQAPGIERELVAAIDWIGGSTYYAESVKGRFTISRDNAKNTEYFQMNSLKPEDTAVYDCAASYKYGSSWGDGYWGQGTQVTVSS”, “low polyreactivity”.
To “QVQLVESGGGLVQAGGGLRLSCAASGFTFTKYAMGLYRQAPGKERELVAAITSGTSTYYADSVKGRFTISRDNAKNTVYLQMNSLKPEDTAVYYCAAPLYGRYSYGYWGQGTQVTVSS” belongs “high polyreactivity”; to “QVQLVESGGGLVQAGGGLRLSCAASGRTIPTYAMGWYRQAPGKERELVATITSAGSTNYADSVKGRFTISRDNAKNTVYLQMNSLKPEDTAVYYCAARRRLAWGQGTQVTVSS”, “high polyreactivity”; to “QVQLVESGGGLVQAGGGLRLSCAASGSYYKYYAMGWYRQAPGKEREFVAAITRSGGSTYYADSVKGRFTISRDNAKNTDYLQMNSLKPEDTAVYYCATDLRTRNYDYWGQGTQVTVSS”, “high polyreactivity”.
For the sequence “QVQLVESGGGLVQAGGILRLSCAACGITVTSYAMGWYRQAPGKERELVAVITGTGGITYYADSVKGRFTISRDNAKNTVYLQMNSLKPEDTAVYYCAAELELREYDYWGQGNQVTVSS”, the “polyreactivity (PSR sort gate)” value was “high polyreactivity”.
For “QVQLVESGGGLVQAGGILRLSCAASGFIFNSYAMGWYRQAPGKERELVAAITKSGGRTYYADSVKGRFTISRDNEKNTVYFQMNSLKPEDTAVYYCAARAYRSSVYRGDYWGQGTQVTVSS” the value was “high polyreactivity”; for “QVQLVESGGGLVQAGGILRLSCAASGFIIRGNVMGWYRQAPGKERELVAAISGRGGSTYYADSVKGRFTISRDNAKNTVYLQMNSLKPEDTAVYYCNAAGLYNSRLDYWGQGTQVTVSS”, “high polyreactivity”; for “QVQLVESGGGLVQAGGILRLSCAASGFTFQNNAMGWYRQAPGKERELVARITRSDGSTYYADSVKGRFTISRDNAKNTVYLQMNSLKPEDNAVYYCAARYGLLGSSRGGYWGQGTQVTVSS”, “low polyreactivity”.
“QVQLVESGGGLVQAGGILRLSCAASGFTFWYYVMGWYRQAPGKERELVAAITSSGDSTYYADSVKGRFTISRDNAKNTVYLQMNSLKPEDTAVYYCAAQRYPFERVYWGQGTQVTVSS”: the “polyreactivity (PSR sort gate)” value is “high polyreactivity”.
For “QVQLVESGGGLVQAGGILRLSCAASGFTSWDNDMGWYRQAPGKERELVAAISRGGSTNYADSVKGRFTLSRDNAKNTVYLQMNSLKPEDPAVYYCATAAVTPVWYDYWGQGTQVTVSS” the value was “low polyreactivity”; for “QVQLVESGGGLVQAGGILRLSCAASGIIFGYNAMGWYRQAPGKERELVAAISYGGGRTYYADSVKGRFTISRDNAKNSVYLQMNSLKPEDTAVYYCAAQYFASRSYGYDYWGQGTQVTVSS”, “high polyreactivity”; for “QVQLVESGGGLVQAGGILRLSCAASGIIFRKNAMGWYRQAPGKERELVAAISSTGASTNYADSVKGRFTISRDNAKNTVYLQMNSLKPEDTAVYYCAASRTRYWKYDYWGPGTQVTVSS”, “high polyreactivity”.
To “QVQLVESGGGLVQAGGILRLSCAASGLIIGEYDMGWYRQAPGKERELVAAMSDRGTSTYYADSVKGRFTISRDNAKNTVDLPMNSLKPEDTAVYYCATDRIYYYSWEYDYWGQGTQVTVSS” belongs “low polyreactivity”; to “QVQLVESGGGLVQAGGILRLSCAASGLTFEQYAMGWYRQAPGKERELVAAISWSGGRTYYADSVKGRFTISRDNAKNTVYLQMNSLKPEDTAVYYCAKDRGCPFYWRYPLGYWGQGTQVTVSS”, “high polyreactivity”.
For “QVQLVESGGGLVQAGGILRLSCAASGNIFAFYAMGWYRQAPVKERELVAAITDGTTTNYADSVKGRFTISRDNAKNTVYLQMNSLIPEDTAVYYSAADTGWWPWLERFRHYYYWGQGTQVTVSS” the value was “low polyreactivity”; for “QVQLVESGGGLVQAGGILRLSCAASGRIFCSYAMGWYRQAPGKERELVAAITRGASTNYADSVKGRFTISRDNAKNIVYLQMNSLKPEDTAVYYCAAGWGRYPILGYYYWGQGTQVTVSS”, “high polyreactivity”; for “QVQLVESGGGLVQAGGILRLSCAASGRIFGPYTMGWYRQAPGKEREFVAAISRSGDSTYYADSVKGRFTISRDNAKNTVYLQMNSLKPEDTAVYYCAAKYGTRLSAYYYWGQGTQVTVSS”, “high polyreactivity”.
Take “QVQLVESGGGLVQAGGILRLSCAASGRIFQHYPMGWYRQAPGKERELVAAISRSGDSTYYADSVKGRFTISRDNAKNTVYLQMNSLKPEDTAVYYCKIVRYSFLYDSWGQGTQVTVSS”: the “polyreactivity (PSR sort gate)” value was “high polyreactivity”.
For “QVQLVESGGGLVQAGGILRLSCAASGRIFSYYAKGWYRQAPGKERELVAAITRGGSTNYADSVKGRFTISRDNAKNSVYLQMNSLKPEDTAVYYFAVRGGYTGPTYNYWGQGTQVTVSS” the value was “high polyreactivity”.
To “QVQLVESGGGLVQAGGILRLSCAASGRTFGGNAIGWYRQAPGKERELVAAITVSAGHTYYADSVKGRFTISRDNAKNTVYLQMNSLKPEDTAVYYCAAGVPYYWSYVWKHPRFDHWGQGTQVTVSS” belongs “low polyreactivity”; to “QVQLVESGGGLVQAGGILRLSCAASGRTFGINAMGWYRQAPGKERELVARIRKTVGSTYYADSVKGRFTISRDNAKNTVYLQMNSLKPEDTAVYYCAADLRYGYLYPYDSWGQGTQVTVSS”, “high polyreactivity”.
To “QVQLVESGGGLVQAGGILRLSCAASGRTFGIYVMGWYRQAPGKERELVAAIRSGGTTNYADTVKGRFTISRDNAKNTVYLKMNSLKPEDTAVYYCAASSRRSWTYDYWGQGTQVTVSS” belongs “high polyreactivity”; to “QVQLVESGGGLVQAGGILRLSCAASGRTFGLYAMGWYRQAPGKERELVASITRSGVSTTYADSVKGRFTISRDNAKNTVYLQMNSLKPVDTAVYYCNTDYTGPDGTDEYDYWGQGTQVTVSS”, “low polyreactivity”; to “QVQLVESGGGLVQAGGILRLSCAASGRTFRIYAMGRYRPAPAKVREFVAGITRSDGSTYYADSVKGRFTISRDNAKNTVSFQMNSLKPVDTEVYYCYVEPYSHYRRTEDYWGQGTEVTVSS”, “high polyreactivity”.
